Data taken from PMC11109945.
Ends that are not written are not given here. * marks the point of attachment. Biotin = O=C1N[C@H]2[C@H](CS[C@H]2CCCCC(=O)*)N1

Biological target: T1, GST-WSB2 WDR (human)
T1 sequence (Q9NYS7 whole entry, looked up): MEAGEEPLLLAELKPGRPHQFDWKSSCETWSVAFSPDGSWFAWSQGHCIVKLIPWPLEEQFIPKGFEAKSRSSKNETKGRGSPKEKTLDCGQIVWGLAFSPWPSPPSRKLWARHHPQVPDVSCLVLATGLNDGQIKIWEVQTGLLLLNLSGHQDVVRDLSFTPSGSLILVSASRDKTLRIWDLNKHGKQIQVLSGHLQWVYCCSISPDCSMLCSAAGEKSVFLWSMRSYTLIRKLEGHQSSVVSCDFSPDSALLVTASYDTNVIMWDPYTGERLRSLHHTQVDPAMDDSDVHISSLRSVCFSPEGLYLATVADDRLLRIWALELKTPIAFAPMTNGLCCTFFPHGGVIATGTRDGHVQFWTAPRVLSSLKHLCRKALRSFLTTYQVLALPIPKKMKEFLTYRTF
Assay: pull-down + far-Western, overlay or dot blot; about 3 ug glutathione beads-bound GST-WSB2 WDR with 1.8 nmol biotin-labeled RelA peptide in 500 ul GST binding buffer, 4°C, 1 h; washed, eluted with 20 mM GSH, denatured, spotted on nitrocellulose; anti-biotin and anti-GST

Biotin-TFKSIMK(Me)K(Me)SPFSG [biotin-labeled K314/315 monomethylated RelA peptide (a.a. 308-320)]
fold affinity against the unmethylated peptide: 3 to 4 fold
